How the values were obtained:
[1] = system: T1, non-stearate Fus1 peptide
T1 sequence: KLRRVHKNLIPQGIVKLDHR

[2] = system: T2, stearate-Fus1 peptide (Stearic acid-KLRRVHKNLIPQGIVKLDHR)
T2 sequence: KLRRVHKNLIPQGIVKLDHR

For “truncated commercial (New England Bio-Labs) cAbl tyrosine kinase (45 kD) containing only the SH2 and SH1 domains”, the “GST-Crk phosphorylation by the 45 kD Abl tyrosine kinase, 0-60 uM peptide” value [1] was “Non-stearic acid modified Fus1 peptide did not inhibit Abl tyrosine kinase activity”, the “phosphorylation of Gst-Crk by commercial Abl” value [1] was “Non-stearate FUS1 peptide did not inhibit phosphorylation of Gst-Crk by commercial Abl” and the “Abl tyrosine kinase assay using bacterially purified Abl kinase (GST-CRK phosphorylation)” value [2] was “This peptide was strongly inhibitory in an Abl tyrosine kinase assay using bacterially purified Abl kinase”. For the same substance, the “c-Abl tyrosine phosphorylation of GST-CRK (32P, SDS-PAGE, phosphoimager; 10-55 µM peptide)” value [2] was “the peptide inhibits c-Abl tyrosine phosphorylation of GST-CRK”.
